Reference: patent US20240117018A1

Assays:
Assay in all cases: cell-based or functional assay
[1] = molecular target: 1394C9G1(Rev-) Env pseudovirus (HIV-1)
[2] = molecular target: 191084 B7-19 Env pseudovirus (HIV-1)
[3] = molecular target: 191955_A11 Env pseudovirus (HIV-1)
[4] = molecular target: 249M B10 Env pseudovirus (HIV-1)
[5] = molecular target: 263-8 Env pseudovirus (HIV-1)
[6] = molecular target: 3365.v2.c2 Env pseudovirus (HIV-1)
[7] = molecular target: 3415.v1.c1 Env pseudovirus (HIV-1)
[8] = molecular target: 6240_08_TA5_4622 Env pseudovirus (HIV-1)
[9] = molecular target: 6244_13_B5_4576 Env pseudovirus (HIV-1)
[10] = molecular target: 6535.3 Env pseudovirus (HIV-1)
[11] = molecular target: 928-28 Env pseudovirus (HIV-1)
[12] = molecular target: AC10.0.29 Env pseudovirus (HIV-1)
[13] = molecular target: BF1266.431a Env pseudovirus (HIV-1)
[14] = molecular target: CAAN5342.A2 Env pseudovirus (HIV-1)
[15] = molecular target: CAP45.2.00.G3 Env pseudovirus (HIV-1)
[16] = molecular target: CNE19 Env pseudovirus (HIV-1)
[17] = molecular target: CNE20 Env pseudovirus (HIV-1)
[18] = molecular target: CNE30 Env pseudovirus (HIV-1)
[19] = molecular target: CNE58 Env pseudovirus (HIV-1)
[20] = molecular target: Ce1086_B2 Env pseudovirus (HIV-1)
[21] = molecular target: Ce1172_H1 Env pseudovirus (HIV-1)
[22] = molecular target: Ce2010_F5 Env pseudovirus (HIV-1)
[23] = molecular target: Ce704809221_1B3 Env pseudovirus (HIV-1)
[24] = molecular target: Du172.17 Env pseudovirus (HIV-1)
[25] = molecular target: Du422.1 Env pseudovirus (HIV-1)
[26] = molecular target: HIV-0013095-2.11 Env pseudovirus (HIV-1)
[27] = molecular target: Q23.17 Env pseudovirus (HIV-1)
[28] = molecular target: Q842.d12 Env pseudovirus (HIV-1)
[29] = molecular target: QH0692.42 Env pseudovirus (HIV-1)
[30] = molecular target: REJO4541.67 Env pseudovirus (HIV-1)
[31] = molecular target: SC422661.8 Env pseudovirus (HIV-1)
[32] = molecular target: WITO4160.33 Env pseudovirus (HIV-1)
[33] = molecular target: ZM135M.PL10a Env pseudovirus (HIV-1)
[34] = molecular target: ZM214M.PL15 Env pseudovirus (HIV-1)
[35] = molecular target: ZM233M.PB6 Env pseudovirus (HIV-1)
[36] = molecular target: ZM247v1(Rev-) Env pseudovirus (HIV-1)

B1: N49P22 (antibody, V domains shown)
V domain 1: HIQLLQSGPQVKKSGDTVRISCETSGYNFVDSRIHWVRQTPEKRLRWMGWINPLQGGVNYAPEFQGRIRMTRDTFIDTVYVDLSGLTPADTAYYYCARGIDGKSYPFHFWGHGTRVTVFS
V domain 2: RFALTQPASVSGSPGQTITITCAGGSVSWFHFPPGKTPRLIIYESSKRPSGVSPRFSGSQSGSTASLIISGLQSDDEGTYFCSILEFFGRGTLVTVLS
IC50 [1]: > 50 µg/mL
IC80 [1]: > 50 µg/mL
MPI [1]: 35
IC50 [2]: 0.343 µg/mL
IC80 [2]: 1.64 µg/mL
MPI [2]: 98
IC50 [3]: > 50 µg/mL
IC80 [3]: > 50 µg/mL
MPI [3]: 9
IC50 [4]: > 50 µg/mL
IC80 [4]: > 50 µg/mL
MPI [4]: 4
IC50 [5]: 1.83 µg/mL
IC80 [5]: 18.5 µg/mL
MPI [5]: 89
IC50 [6]: 0.254 µg/mL
IC80 [6]: 0.857 µg/mL
MPI [6]: 98
IC50 [7]: 0.198 µg/mL
IC80 [7]: 1.41 µg/mL
MPI [7]: 96
IC50 [8]: 2.33 µg/mL
IC80 [8]: 9.76 µg/mL
MPI [8]: 93
IC50 [9]: 0.565 µg/mL
IC80 [9]: 2.48 µg/mL
MPI [9]: 97
IC50 [10]: > 50 µg/mL
IC80 [10]: > 50 µg/mL
MPI [10]: 5
IC50 [11]: > 50 µg/mL
IC80 [11]: > 50 µg/mL
MPI [11]: 32
IC50 [12]: > 50 µg/mL
IC80 [12]: > 50 µg/mL
MPI [12]: 0
IC50 [13]: > 50 µg/mL
IC80 [13]: > 50 µg/mL
MPI [13]: 0
IC50 [14]: 0.425 µg/mL
IC80 [14]: 1.88 µg/mL
MPI [14]: 99
IC50 [15]: > 50 µg/mL
IC80 [15]: > 50 µg/mL
MPI [15]: 0
IC50 [16]: 0.873 µg/mL
IC80 [16]: 8.19 µg/mL
MPI [16]: 92
IC50 [17]: > 50 µg/mL
IC80 [17]: > 50 µg/mL
MPI [17]: 18
IC50 [18]: > 50 µg/mL
IC80 [18]: > 50 µg/mL
MPI [18]: 30
IC50 [19]: 28.4 µg/mL
IC80 [19]: > 50 µg/mL
MPI [19]: 57
IC50 [20]: > 50 µg/mL
IC80 [20]: > 50 µg/mL
MPI [20]: 0
IC50 [21]: > 50 µg/mL
IC80 [21]: > 50 µg/mL
MPI [21]: 0
IC50 [22]: 2.05 µg/mL
IC80 [22]: 11.7 µg/mL
MPI [22]: 93
IC50 [23]: 15.8 µg/mL
IC80 [23]: > 50 µg/mL
MPI [23]: 60
IC50 [24]: > 50 µg/mL
IC80 [24]: > 50 µg/mL
MPI [24]: 4
IC50 [25]: > 50 µg/mL
IC80 [25]: > 50 µg/mL
MPI [25]: 4
IC50 [26]: > 50 µg/mL
IC80 [26]: > 50 µg/mL
MPI [26]: 9
IC50 [27]: 0.321 µg/mL
IC80 [27]: 2.4 µg/mL
MPI [27]: 96
IC50 [28]: 0.079 µg/mL
IC80 [28]: 0.359 µg/mL
MPI [28]: 100
IC50 [29]: 0.592 µg/mL
IC80 [29]: 2.02 µg/mL
MPI [29]: 100
IC50 [30]: 0.792 µg/mL
IC80 [30]: 12.1 µg/mL
MPI [30]: 84
IC50 [31]: 0.12 µg/mL
IC80 [31]: 0.544 µg/mL
MPI [31]: 100
IC50 [32]: 4.86 µg/mL
IC80 [32]: > 50 µg/mL
MPI [32]: 74
IC50 [33]: > 50 µg/mL
IC80 [33]: > 50 µg/mL
MPI [33]: 27
IC50 [34]: > 50 µg/mL
IC80 [34]: > 50 µg/mL
MPI [34]: 25
IC50 [35]: > 50 µg/mL
IC80 [35]: > 50 µg/mL
MPI [35]: 2
IC50 [36]: > 50 µg/mL
IC80 [36]: > 50 µg/mL
MPI [36]: 11
